Consider one substance from patent publication US20050026219A1, “Process for label-free measurement of modified substrate” (Boehringer Ingelheim Pharma GmbH & Co. KG, priority 2001, published 2005).

Test [1] addresses phosphorylated Poly-(Glu, Tyr) 4:1 (after reaction with EGF-RK and ATP). In words: RIfS solution competition: PGT 10 ug/50 ul, EGF-RK 1 Unit/50 ul, ATP, no inhibitor (staurosporin series); phosphotyrosine-diamino-PEG 2000 sensor.
In test [2] the target is oligopeptide Ac-Ile-Tyr-Gly-Glu-Phe-NH2 "M-2165" (Messrs. Bachem, MW 668.8). In words: RIfS solution competition: M-2165 10 ug/50 ul, p60c-src-kinase 4 Units/50 ul, no ATP; free antibody read on phosphotyrosine-aminodextrane (AMD) sensor.
Test [3] addresses Raytide EL (protein-tyrosine-kinase substrate, MW 2476 Dalton, Messrs. Calbiochem). Put plainly: RIfS solution competition: Raytide EL 2 ug/50 ul, EGF-RK 0.5 Units/50 ul, no ATP; free antibody read on phosphotyrosine-diamino-PEG 2000 sensor.
Test [4] deals with phosphorylated Poly-(Glu, Tyr) 4:1 (after reaction with EGF-RK and ATP). Put plainly: RIfS solution competition: PGT 10 ug/50 ul, EGF-RK 1 Unit/50 ul, ATP, no inhibitor (erbstatin analogue series); phosphotyrosine-diamino-PEG 2000 sensor.
Test [5] concerns the target Poly-(Glu, Tyr) 4:1 (MW: 39100, Messrs. Sigma; CAS number 97105-00-5). In words: RIfS solution competition: PGT 10 ug/50 ul, EGF-RK 2 Units/50 ul, no ATP; free antibody read on phosphotyrosine-diamino-PEG 2000 sensor.
The target of test [6] is phosphorylated Poly-(Glu, Tyr) 4:1 (after reaction with EGF-RK and ATP). In words: RIfS solution competition: antibody incubated with mixture (PGT 10 ug/50 ul, EGF-RK 0.1 Unit/50 ul, EGF 0.5 ug/50 ul, ATP), free antibody read on phosphotyrosine-diamino-PEG 2000 sensor; lower value = antibody taken up by phosphorylated substrate.
Test [7] deals with phosphorylated Raytide EL (after reaction with EGF-RK and ATP). In words: RIfS solution competition: Raytide EL 2 ug/50 ul, EGF-RK 0.5 Units/50 ul, ATP; free antibody read on phosphotyrosine-diamino-PEG 2000 sensor; lower value = antibody taken up by phosphorylated substrate.
The target in test [8] is Poly-(Glu, Tyr) 4:1 (MW: 39100, Messrs. Sigma; CAS number 97105-00-5). In words: RIfS solution competition: PGT 10 ug/50 ul, EGF-RK 1 Unit/50 ul, no ATP; free antibody read on phosphotyrosine sensor.
For test [9], the target named is phosphorylated Poly-(Glu, Tyr) 4:1 (after reaction with EGF-RK and ATP). In words: RIfS solution competition: PGT 10 ug/50 ul, EGF-RK 2 Units/50 ul, ATP; free antibody read on phosphotyrosine-diamino-PEG 2000 sensor; lower value = antibody taken up by phosphorylated substrate.
Test [10] has as its target Poly-(Glu, Tyr) 4:1 (MW: 39100, Messrs. Sigma; CAS number 97105-00-5). Put plainly: RIfS solution competition: antibody incubated with mixture (PGT 10 ug/50 ul, EGF-RK 0.1 Unit/50 ul, EGF 0.5 ug/50 ul, no ATP), free antibody read on phosphotyrosine-diamino-PEG 2000 sensor; high value = antibody not taken up by substrate.
The target of test [11] is phosphorylated Poly-(Glu, Tyr) 4:1 (after reaction with EGF-RK and ATP). Put plainly: RIfS solution competition: PGT 10 ug/50 ul, EGF-RK 1 Unit/50 ul, ATP, no inhibitor (genistein series); phosphotyrosine-diamino-PEG 2000 sensor.
Test [12] concerns the target Poly-(Glu, Tyr) 4:1 (MW: 39100, Messrs. Sigma; CAS number 97105-00-5). In words: RIfS solution competition: PGT 10 ug/50 ul, EGF-RK 1 Unit/50 ul, no ATP, no inhibitor (control of the Tyrphostin 47 series); phosphotyrosine-diamino-PEG 2000 sensor.
The target of test [13] is phosphorylated Poly-(Glu, Tyr) 4:1 (after reaction with EGF-RK and ATP). In words: RIfS solution competition; mean of the six complete mixtures of Table 10.
Test [14] has as its target Poly-(Glu, Tyr) 4:1 (MW: 39100, Messrs. Sigma; CAS number 97105-00-5). In words: RIfS solution competition; mean of the two mixtures without ATP of Table 10.
For test [15] the target is unchanged. Put plainly: RIfS solution competition: PGT 10 ug/50 ul, EGF-RK 1 Unit/50 ul, no ATP, no inhibitor (control of the staurosporin series); phosphotyrosine-diamino-PEG 2000 sensor.
Test [16] concerns the target oligopeptide Ac-Ile-Tyr-Gly-Glu-Phe-NH2 "M-2165" (Messrs. Bachem, MW 668.8). Put plainly: RIfS solution competition: M-2165 10 ug/50 ul, p60c-src-kinase 2 Units/50 ul, no ATP; free antibody read on phosphotyrosine-diamino-PEG 2000 sensor.
The target of test [17] is phosphorylated Poly-(Glu, Tyr) 4:1 (after reaction with EGF-RK and ATP). Put plainly: RIfS solution competition: PGT 10 ug/50 ul, EGF-RK 1 Unit/50 ul, ATP, no inhibitor (Tyrphostin 47 series); phosphotyrosine-diamino-PEG 2000 sensor.
In test [18] the target is Poly-(Glu, Tyr) 4:1 (MW: 39100, Messrs. Sigma; CAS number 97105-00-5). Put plainly: RIfS solution competition: PGT 10 ug/50 ul, EGF-RK 1 Unit/50 ul, no ATP, no inhibitor (control of the genistein series); phosphotyrosine-diamino-PEG 2000 sensor.

Where “and” joins values, the source holds several entries; their conditions need not be identical. Equal entries are not always repeated.

Consider “monoclonal murine antibody IgG1 from Ascites: Anti-PhosphoTyrosine (Clone number: PT-66, Messrs. Sigma)”, for which the Optical layer thickness in nm in test [1] came to 0.233 nm; in [2], 3.81 nm; in test [3], 3.11 nm; in test [4], 0.852 nm; in [5], 2.65 nm; in test [6], 2.04 nm. Moreover, the Optical layer thickness in nm in [7] was 1.83 nm; in test [8], 2.06 nm and 2.27 nm; in test [9], 0.225 nm; in [10] it was 2.59 nm; in test [11], 0.446 nm; in test [12] it was 2.3 nm. Moreover, the Optical layer thickness in nm in [15] was found to be 2.99 nm; in [16], 3.2 nm; in [17] it was 0.613 nm; in [18], 2.4 nm. For the same substance, the optical layer thickness in nm (mean value) in [13] came to 0.19 nm; in [14], 2.16 nm.
